The results in this text go back to patent publication US20040132969A1, “Antibodies, peptides, analogs and uses thereof” (priority 2000, published 2004).

“Also recorded” adds a separate entry of the source.

The test system of data set [1] is HUVEC and fibroblasts. As to the kind of experiment: Neutral Red cell metabolism cytotoxicity assay. It is filed as cell-based, human. Conditions: HUVEC and fibroblast monocultures; 72 hours. On the procedure: (§1) In order to determine whether the fibrin E analogue peptides WTM33, WTM34, WTM35, WTM36, and WTM37 are cytotoxic when applied to the HUVEC and fibroblasts used in the Angiosys™ angiogenesis assay, these reagents were examined in two different cytotoxicity assays. To simplify performance of these assays and discriminate between fibroblasts and HUVEC, cells were grown in monocultures rather than together and then treated with the experimental reagents as described below.
A Neutral Red cell metabolism assay was used to determine the cytotoxicity to HUVEC and fibroblasts of the fibrin E analogue peptides. This assay works on the basis of colorimetric measurement of a red dye which, is reported to be taken up into the lysosomes of uninjured cells. Thus the stronger the colour signal obtained from a well of cells, the greater the percentage of cells remaining viable within that well. HUVEC cells were inoculated into wells of 96 wells at a density of 5×10^3 cells per well, in endothelial cell culture medium. Fibroblasts were similarly seeded 5×10^3 cells per well. The cells were incubated for 24 hours under standard conditions to permit adherence and growth, and then treated for 72 hours with fresh medium containing fibrin E peptides over the same range of concentrations used in the Angiosys™ angiogenesis assay. For each concentration of each of the six peptides, four replicate wells of each cell type were treated and then assayed. Following incubation with the test compounds, the medium was removed and replaced with 200 μl per well of fresh medium containing 3.57 mg neutral red per 100 ml. The cells were incubated with this neutral red solution for 3 hours, after which this solution was decanted and replaced with 100 μl 1% formaldehyde/1% CaCl2. This was rapidly decanted and replaced in turn with 200 μl 50% ethanol/1% acetic acid, which was incubated at room temperature for 30 minutes to extract the neutral red from the cells. The plates were then read in a 96 well plate-format spectrophotometer, measuring absorbance at 540 nm. Mean absorbance values from each group of four wells were calculated and expressed as a percentage±standard deviation of the mean value obtained from control wells incubated in the absence of fibrin E analogue peptide.

In data set [2] the test system is HUVEC and fibroblasts. The experiment in a line: BrdU ELISA cell proliferation cytotoxicity assay. Conditions: HUVEC and fibroblast monocultures; 24 hours. It is filed as cell-based, human. On the procedure:
as §1
Cytotoxicity of the fibrin E peptide analogues was also determined by examining cell proliferation, using a commercial BrdU ELISA (Roche Molecular Biochemicals) performed according to the manufacturer's instructions. This assay quantifies DNA synthesis as a measure of cellular proliferation, as stimulation or inhibition of cell replication will require a concomitant change in the rate of DNA synthesis. Measurement of DNA synthesis is achieved by incubating proliferating cells in medium in which thymidine has been replaced with the pyrimidine analogue 5-bromo-2′-deoxyuridine (BrdU). Once incorporated into the cellular DNA, BrdU is measured by immunoassay. Briefly, HUVEC and fibroblasts were seeded as monocultures into 96 well plates at a density of 5×10^3 cells per well, to a final volume of 100 μl per well in endothelial cell culture medium. At the end of an initial culture period of 72 hours under standard conditions, while the cells were still proliferating, fibrin E analogue peptides were added to a range of final concentrations, as shown in the FIG. 8. Each treatment concentration of each peptide was administered to four replicate wells. Control cells received standard medium without test compounds. The cells were incubated for 24 hours with the test compounds, before 10 μl of stock BrdU solution (100 μM) was added to give a final concentration of 10 μM BrdU, and the cells were incubated for a further 2 hours. The test medium was then removed from the cells and replaced with 200 μl per well of Fixing/Denaturing solution, which was incubated on the cells for a further 30 minutes at room temperature. This was then replaced with 100 μl per well anti-BrdU-POD (mouse monoclonal clone BMG 6H8, Fab fragments conjugated to peroxidase) prepared as directed, which was left on the cells for a further 90 minutes at room temperature. The antibody conjugate was then removed from the wells by rinsing three times in 200 μl per well of washing buffer (PBS) before 100 μl well substrate solution (tetramethyl-benzidine) was added and incubated at room temperature until colour development was sufficient for photometric detection (approximately 15 minutes). Absorbance at 370 nm was measured on a multi-well plate ELISA plate reader (Dynatech), with a reference wavelength of 492 nm. Mean absorbance values from each group of four wells were calculated and expressed as a percentage±standard deviation of the mean value obtained from control wells incubated in the absence of fibrin E analogue peptide.
On the technique in general: Incorporation of labelled thymidine or its analogues reports DNA synthesis.

Data set [3] deals with Lewis Lung Carcinoma (LLC) cells. As to the kind of experiment: Pulmonary tumour metastasis model (Lewis lung carcinoma). The following applies: lung weight / metastatic episodes. In kind it is in vivo, C57BL/6J mice. On the procedure:
In the metastasis model, Lewis Lung Carcinoma (LLC) cells are injected into the tail of the mouse, lodge in the lungs, and grow and spread rapidly.
In more detail, groups of five C57BL/6J mice were injected with 5×10^4 LLC cells via the tail vein and were subsequently treated intraperitoneally with various concentrations of tested peptides or equal volume of diluent control. The treatment was initiated three days after tumor cell inoculation. Two weeks after the intravenous injection of tumor cells, the mice were sacrificed and necropsied. The lungs were removed, weighed and compared to untreated controls, and to normal lungs without tumors. Results were analyzed for statistical significance using the Student's t-test.

For LHADPDLGVLCPTGC [WTM34], in the data set on HUVEC and fibroblasts [1], the “cytotoxicity / cell viability, Neutral Red assay” value was “not cytotoxic; also recorded: no toxicity”. Also, the “cytotoxicity / cell proliferation, BrdU assay” value in the data set with HUVEC and fibroblasts [2] was “not cytotoxic; also recorded: no toxicity”. Also, the “effect in metastasis model (in words)” value in data set [3] is on record as “striking results”.
